Reference: the supplement of paper PMC5998384

Assays:
[1] = test system: HeLa Kyoto; test: solubility in G1/S (NP-40 vs SDS abundance) (log2 ratio); higher = more soluble; conditions: cell cycle stage: G1/S
[2] = test system: HeLa Kyoto; test: melting temperature (median over replicates), in situ; higher = more thermally stable
[3] = test system: HeLa Kyoto; test: solubility change mitosis vs G1/S (difference of NP-40 vs SDS log2 ratios) (log2 ratio difference); higher = more soluble in mitosis
[4] = test system: HeLa Kyoto; test: thermal stability score vs G1/S (z-score of summed log2 fold changes over temperatures); higher = more thermally stable than in G1/S
[5] = cell cycle stage: early G1 (4.5 h after nocodazole release)
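Wherever melting temperature (median over replicates), in situ is given: HeLa Kyoto cells synchronized by double thymidine or nocodazole block, proteins quantified by TMT10plex mass spectrometry, three independent biological replicates.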
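Wherever solubility change mitosis vs G1/S (difference of NP-40 vs SDS log2 ratios) is given: synchronized HeLa Kyoto cells (double thymidine block for G1/S, nocodazole release for mitosis), protein amounts in NP-40 versus SDS lysates quantified by mass spectrometry, three biological replicates.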
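Wherever solubility in G1/S (NP-40 vs SDS abundance) is given: HeLa Kyoto cells arrested at G1/S by double thymidine block, proteins quantified by TMT10plex mass spectrometry in mild NP-40 versus SDS extracts, three biological replicates.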
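Wherever thermal stability score vs G1/S (z-score of summed log2 fold changes over temperatures) is given: synchronized HeLa Kyoto cells, proteins quantified by TMT10plex mass spectrometry, three biological replicates, mitosis taken 0.5 h after nocodazole release, G1/S directly after double thymidine block.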

“MGSSKKVTLSVLSREQSEGVGARVRRSIGRPELKNLDPFLLFDEFKGGRPGGFPDHPHRGFETVSYLLEGGSMAHEDFCGHTGKMNPGDLQWMTAGRGILHAEMPCSEEPAHGLQLWVNLRSSEKMVEPQYQELKSEEIPKPSKDGVTVAVISGEALGIKSKVYTRTPTLYLDFKLDPGAKHSQPIPKGWTSFIYTISGDVYIGPDDAQQKIEPHHTAVLGEGDSVQVENKDPKRSHFVLIAGEPLREPVIQHGPFVMNTNEEISQAILDFRNAKNGFERAKTWKSKIGN [PIR]” was tested. Which “solubility in G1/S (log2)” value [1] did it give?
The value was 0.288.

And the melting temperature ([2]; cell cycle stage: G1/S)?
Its melting temperature is 51.8 °C.

What about the melting temperature ([2]; cell cycle stage: mitosis) of the same sequence?
The melting temperature was 51.6 °C.

What about the “solubility change mitosis (log2)” value [3] of the same sequence?
The value was -0.0437.

What about the thermal stability score [4, 5] of the same sequence?
The thermal stability score was -1.49.

And the thermal stability score ([4]; cell cycle stage: mitosis)?
Its thermal stability score is -1.89.

What does the source list for “MGTRLPLVLRQLRRPPQPPGPPRRLRVPCRASSGGGGGGGGGREGLLGQRRPQDGQARSSCSPGGRTPAARDSIVREVIQNSKEVLSLLQEKNPAFKPVLAIIQAGDDNLMQEINQNLAEEAGLNITHICLPPDSSEAEIIDEILKINEDTRVHGLALQISENLFSNKVLNALKPEKDVDGVTDINLGKLVRGDAHECFVSPVAKAVIELLEKSGVNLDGKKILVVGAHGSLEAALQCLFQRKGSMTMSIQWKTRQLQSKLHEADIVVLGSPKPEEIPLTWIQPGTTVLNCSHDFLSGKVGCGSPRIHFGGLIEEDDVILLAAALRIQNMVSSGRRWLREQQHRRWRLHCLKLQPLSPVPSDIEISRGQTPKAVDVLAKEIGLLADEIEIYGKSKAKVRLSVLERLKDQADGKYVLVAGITPTPLGEGKSTVTIGLVQALTAHLNVNSFACLRQPSQGPTFGVKGGAAGGGYAQVIPMEEFNLHLTGDIHAITAANNLLAAAIDTRILHENTQTDKALYNRLVPLVNGVREFSEIQLARLKKLGINKTDPSTLTEEEVSKFARLDIDPSTITWQRVLDTNDRFLRKITIGQGNTEKGHYRQAQFDIAVASEIMAVLALTDSLADMKARLGRMVVASDKSGQPVTADDLGVTGALTVLMKDAIKPNLMQTLEGTPVFVHAGPFANIAHGNSSVLADKIALKLVGEEGFVVTEAGFGADIGMEKFFNIKCRASGLVPNVVVLVATVRALKMHGGGPSVTAGVPLKKEYTEENIQLVADGCCNLQKQIQITQLFGVPVVVALNVFKTDTRAEIDLVCELAKRAGAFDAVPCYHWSVGGKGSVDLARAVREAASKRSRFQFLYDVQVPIVDKIRTIAQAVYGAKDIELSPEAQAKIDRYTQQGFGNLPICMAKTHLSLSHQPDKKGVPRDFILPISDVRASIGAGFIYPLVGTMSTMPGLPTRPCFYDIDLDTETEQVKGLF [MTHFD1L]”?
solubility in G1/S (log2) [1]: 0.247; melting temperature ([2]; cell cycle stage: G1/S): 51.7 °C; melting temperature ([2]; cell cycle stage: mitosis): 51.5 °C; solubility change mitosis (log2) [3]: -0.101; thermal stability score [4, 5]: -0.3; thermal stability score ([4]; cell cycle stage: mitosis): 0.0484

Which results are given for “MGVPAFFRWLSRKYPSIIVNCVEEKPKECNGVKIPVDASKPNPNDVEFDNLYLDMNGIIHPCTHPEDKPAPKNEDEMMVAIFEYIDRLFSIVRPRRLLYMAIDGVAPRAKMNQQRSRRFRASKEGMEAAVEKQRVREEILAKGGFLPPEEIKERFDSNCITPGTEFMDNLAKCLRYYIADRLNNDPGWKNLTVILSDASAPGEGEHKIMDYIRRQRAQPNHDPNTHHCLCGADADLIMLGLATHEPNFTIIREEFKPNKPKPCGLCNQFGHEVKDCEGLPREKKGKHDELADSLPCAEGEFIFLRLNVLREYLERELTMASLPFTFDVERSIDDWVFMCFFVGNDFLPHLPSLEIRENAIDRLVNIYKNVVHKTGGYLTESGYVNLQRVQMIMLAVGEVEDSIFKKRKDDEDSFRRRQKEKRKRMKRDQPAFTPSGILTPHALGSRNSPGSQVASNPRQAAYEMRMQNNSSPSISPNTSFTSDGSPSPLGGIKRKAEDSDSEPEPEDNVRLWEAGWKQRYYKNKFDVDAADEKFRRKVVQSYVEGLCWVLRYYYQGCASWKWYYPFHYAPFASDFEGIADMPSDFEKGTKPFKPLEQLMGVFPAASGNFLPPSWRKLMSDPDSSIIDFYPEDFAIDLNGKKYAWQGVALLPFVDERRLRAALEEVYPDLTPEETRRNSLGGDVLFVGKHHPLHDFILELYQTGSTEPVEVPPELCHGIQGKFSLDEEAILPDQIVCSPVPMLRDLTQNTVVSINFKDPQFAEDYIFKAVMLPGARKPAAVLKPSDWEKSSNGRQWKPQLGFNRDRRPVHLDQAAFRTLGHVMPRGSGTGIYSNAAPPPVTYQGNLYRPLLRGQAQIPKLMSNMRPQDSWRGPPPLFQQQRFDRGVGAEPLLPWNRMLQTQNAAFQPNQYQMLAGPGGYPPRRDDRGGRQGYPREGRKYPLPPPSGRYNWN [XRN2]”?
solubility in G1/S (log2) [1]: -0.126; melting temperature ([2]; cell cycle stage: G1/S): 50.2 °C; melting temperature ([2]; cell cycle stage: mitosis): 50.4 °C; solubility change mitosis (log2) [3]: 0.128; thermal stability score [4, 5]: 1.15; thermal stability score ([4]; cell cycle stage: mitosis): 0.632

Which “solubility in G1/S (log2)” value [1] does the source give for “MGVQGLWKLLECSGRQVSPEALEGKILAVDISIWLNQALKGVRDRHGNSIENPHLLTLFHRLCKLLFFRIRPIFVFDGDAPLLKKQTLVKRRQRKDLASSDSRKTTEKLLKTFLKRQAIKTAFRSKRDEALPSLTQVRRENDLYVLPPLQEEEKHSSEEEDEKEWQERMNQKQALQEEFFHNPQAIDIESEDFSSLPPEVKHEILTDMKEFTKRRRTLFEAMPEESDDFSQYQLKGLLKKNYLNQHIEHVQKEMNQQHSGHIRRQYEDEGGFLKEVESRRVVSEDTSHYILIKGIQAKTVAEVDSESLPSSSKMHGMSFDVKSSPCEKLKTEKEPDATPPSPRTLLAMQAALLGSSSEEELESENRRQARGRNAPAAVDEGSISPRTLSAIKRALDDDEDVKVCAGDDVQTGGPGAEEMRINSSTENSDEGLKVRDGKGIPFTATLASSSVNSAEEHVASTNEGREPTDSVPKEQMSLVHVGTEAFPISDESMIKDRKDRLPLESAVVRHSDAPGLPNGRELTPASPTCTNSVSKNETHAEVLEQQNELCPYESKFDSSLLSSDDETKCKPNSASEVIGPVSLQETSSIVSVPSEAVDNVENVVSFNAKEHENFLETIQEQQTTESAGQDLISIPKAVEPMEIDSEESESDGSFIEVQSVISDEELQAEFPETSKPPSEQGEEELVGTREGEAPAESESLLRDNSERDDVDGEPQEAEKDAEDSLHEWQDINLEELETLESNLLAQQNSLKAQKQQQERIAATVTGQMFLESQELLRLFGIPYIQAPMEAEAQCAILDLTDQTSGTITDDSDIWLFGARHVYRNFFNKNKFVEYYQYVDFHNQLGLDRNKLINLAYLLGSDYTEGIPTVGCVTAMEILNEFPGHGLEPLLKFSEWWHEAQKNPKIRPNPHDTKVKKKLRTLQLTPGFPNPAVAEAYLKPVVDDSKGSFLWGKPDLDKIREFCQRYFGWNRTKTDESLFPVLKQLDAQQTQLRIDSFFRLAQQEKEDAKRIKSQRLNRAVTCMLRKEKEAAASEIEAVSVAMEKEFELLDKAKGKTQKRGITNTLEESSSLKRKRLSDSKGKNTCGGFLGETCLSESSDGSSSEDAESSSLMNVQRRTAAKEPKTSASDSQNSVKEAPVKNGGATTSSSSDSDDDGGKEKMVLVTARSVFGKKRRKLRRARGRKRKT [ERCC5]” here?
The value was -0.112.

And the melting temperature ([2]; cell cycle stage: G1/S)?
The melting temperature was 50.7 °C.

What about the melting temperature ([2]; cell cycle stage: mitosis) of the same sequence?
Its melting temperature is 51.4 °C.

What about the “solubility change mitosis (log2)” value [3] of the same sequence?
The value was -0.0796.

What about the thermal stability score [4, 5] of the same sequence?
Its thermal stability score is 0.19.

And the thermal stability score ([4]; cell cycle stage: mitosis)?
Its thermal stability score is 1.18.

Which “solubility in G1/S (log2)” value [1] does the source give for “MGVTCVSQMPVAEGKSVQQTVELLTRKLEMLGAEKQGTFCVDCETYHTAASTLGSQGQTGKLMYVMHNSEYPLSCFALFENGPCLIADTNFDVLMVKLKGFFQSAKASKIETRGTRYQYCDFLVKVGTVTMGPSARGISVEVEYGPCVVASDCWSLLLEFLQSFLGSHTPGAPAVFGNRHDAVYGPADTMVQYMELFNKIRKQQQVPVAGIR [MED20]” here?
The value was 0.339.

And the melting temperature ([2]; cell cycle stage: G1/S)?
Its melting temperature is 51.7 °C.

What about the melting temperature ([2]; cell cycle stage: mitosis) of the same sequence?
Its melting temperature is 52.7 °C.

And the “solubility change mitosis (log2)” value [3]?
The value was -0.0509.

What about the thermal stability score [4, 5] of the same sequence?
The thermal stability score was -0.587.

And the thermal stability score ([4]; cell cycle stage: mitosis)?
Its thermal stability score is -0.494.
